Laboratory results taken from patent US20200347144A1 (SHANGHAI HYAMAB BIOTECH, published 2020).

B1: 100F3C4 (antibody, V domains shown)
VH: QVQLQESGPGLVKPSGTLSLTCAVSGGSISSSNWWSWVRQPPGKGLEWIGEIYHSGSTNYNPSLKSRVTMSVDKSKNQFSLELRSVTAADTAVYYCARDAVDAYYYYYGMDVWGQGTTVTVSS
VL: DIQLTQSPSFLSASVGDRVTITCRASQGISSYLAWYQQKPGKAPKLLIYAASTLQSGVPSRFSGSGSGTEFTLTISSLQPEDFATYYCQHLNSYPFTFGPGTKVDLK
B2: his-muCD8a-4-1BBL^ECD fusion protein (ligand, UniProt P01731 28-194, looked up)
chain: KPQAPELRIFPKKMDAELGQKVDLVCEVLGSVSQGCSWLFQNSSSKLPQPTFVVYMASSHNKITWDEKLNSSKLFSAMRDTNNKYVLTLNKFSKENEGYYFCSVISNSVMYFSSVVPVLQKVNSTTTKPVLRTPSPVHPTGTSQPQRPEDCRPRGSVKGTGLDFACDREGPELSPDDPAGLLDLRQGMFAQLVAQNVLLIDGPLSWYSDPGLAGVSLTGGLSYKEDTKELVVAKAGVYYVFFQLELRRVVAGEGSGSVSLALHLQPLRSAAGAAALALTVDLPPASSEARNSAFGFQGRLLHLSAGQRLGVHLHTEARARHAWQLTQGATVLGLFRVTPEIPAGLPSPRSE
notes: also called 4-1BB ligand protein; not shown: his-tag on the N side

Legend:
[1] = molecular target: T1, monkey 4-1BB on CHOK1 cells (monkey); test: FACS, CHOK1-c4-1BB cells; Ab 0.0032 ug/ml
T1 construct: whole, on cells; also called CHOK1-c4-1BB
Excerpt: (§1) The pIRES plasmid carrying the full-length gene of monkey-derived […] (the preparation method is the same as the preparation method of the pCpC vector carrying the human-derived IgG Fc fragment (hFc) in “Preparation of immunogen A” of the step (1) in Example 1, in which the database accession number of the amino acid sequence of the extracellular region of monkey 4-1BB protein (Phe19-Thr239) is G7PSE7) was transfected into CHOK1 cell line to obtain CHOK1 stable transfected cell line containing monkey 4-1BB (herein referred to as CHOK1-c4-1BB stable cell line). The CHOK1-h4-1BB stable cell line and the CHOK1-c4-1BB stable cell line were expanded and cultivated to 90% confluence in T-75 cell culture flasks. The medium was exhausted, and washed twice with HBSS buffer (Hanks Balanced Salt Solution, purchased from Invitrogen), and then the cells were treated and collected with enzyme-free cell dissociation solution (Versene solution, purchased from Life Technology). The cells were washed twice with HBSS buffer, and after cell counting, the cells were diluted with HBSS buffer to 2×10⁶ cells per ml, and 1% goat serum blocking solution was added, the percentage being the mass percentage. It was incubated on ice for 30 minutes, and then washed twice with HBSS buffer by centrifugation. The collected cells were suspended in FACS buffer (HBSS containing 1% BSA, the percentage was the mass percentage) to 2×10⁶ cells/mL, and 100 μl per well was added to a 96-well FACS reaction plate. The purified 4-1BB antibody test sample obtained in Example 2 was added, 100 microliters per well and incubated on ice for 2 hours. […] It was washed three times with FACS buffer by centrifugation, and 100 μl of fixative [4% (v/v) paraformaldehyde] per well was added to suspend cells, and washed twice with FACS buffer after 10 minutes by centrifugation. The cells were suspended with 100 microliters of FACS buffer, and the results were detected and analyzed with FACS (FACS Calibur, purchased from BD).

[2] = molecular target: T2, human 4-1BB, full length, on transfected cells (human, UniProt Q07011 24-255); test: FACS, CHOK1-h4-1BB cells; Ab 10 ug/ml
T2 construct: whole, on cells; also called CHOK1-h4-1BB
T2 sequence (Q07011 24-255): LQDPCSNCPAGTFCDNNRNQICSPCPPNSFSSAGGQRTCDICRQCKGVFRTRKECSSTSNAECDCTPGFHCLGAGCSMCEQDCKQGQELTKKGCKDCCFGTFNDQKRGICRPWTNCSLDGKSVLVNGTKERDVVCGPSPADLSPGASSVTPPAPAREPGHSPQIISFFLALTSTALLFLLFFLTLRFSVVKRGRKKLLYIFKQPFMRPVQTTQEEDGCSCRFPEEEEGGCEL
Excerpt: as §1

[3] = molecular target: T2, human 4-1BB, full length, on …; test: FACS, CHOK1-h4-1BB cells; Ab 0.00013 ug/ml
Excerpt: as §1

[4] = molecular target: T1, monkey 4-1BB on CHOK1 cells; test: FACS, CHOK1-c4-1BB cells; Ab 0.08 ug/ml
Excerpt: as §1

[5] = molecular target: T2, human 4-1BB, full length, on …; test: FACS, CHOK1-h4-1BB cells; Ab 0.00064 ug/ml
Excerpt: as §1

[6] = molecular target: T1, monkey 4-1BB on CHOK1 cells; test: FACS, CHOK1-c4-1BB cells; Ab 0.016 ug/ml
Excerpt: as §1

[7] = molecular target: T1, monkey 4-1BB on CHOK1 cells; test: FACS, CHOK1-c4-1BB cells; Ab 2 ug/ml
Excerpt: as §1

[8] = molecular target: T1, monkey 4-1BB on CHOK1 cells; test: FACS, CHOK1-c4-1BB cells; Ab 0.00013 ug/ml
Excerpt: as §1

[9] = molecular target: T2, human 4-1BB, full length, on …; test: FACS, CHOK1-h4-1BB cells; Ab 0.4 ug/ml
Excerpt: as §1

[10] = molecular target: T1, monkey 4-1BB on CHOK1 cells; test: FACS, CHOK1-c4-1BB cells; Ab 0.00064 ug/ml
Excerpt: as §1

[11] = molecular target: T1, monkey 4-1BB on CHOK1 cells; test: FACS, CHOK1-c4-1BB cells; Ab 0.4 ug/ml
Excerpt: as §1

[12] = molecular target: T2, human 4-1BB, full length, on …; test: FACS, CHOK1-h4-1BB cells; Ab 0.08 ug/ml
Excerpt: as §1

[13] = molecular target: T2, human 4-1BB, full length, on …; test: FACS, CHOK1-h4-1BB cells; Ab 0.016 ug/ml
Excerpt: as §1

[14] = molecular target: T2, human 4-1BB, full length, on …; test: FACS, CHOK1-h4-1BB cells; Ab 0.0032 ug/ml
Excerpt: as §1

[15] = molecular target: T2, human 4-1BB, full length, on …; test: FACS, CHOK1-h4-1BB cells; Ab 2 ug/ml
Excerpt: as §1

[16] = molecular target: T1, monkey 4-1BB on CHOK1 cells; test: FACS, CHOK1-c4-1BB cells; Ab 10 ug/ml
Excerpt: as §1

[17] = molecular target: T3, hFc-tagged human 4-1BB extracellular domain protein (4-1BB-hFc) (human, UniProt Q07011 24-186, limits assumed); test: ELISA: 4-1BB-hFc coated at 0.5 µg/mL, his-muCD8a-4-1BBL titrated, detection by biotin anti-mouse CD8a and streptavidin-HRP, OD450
T3 construct: also called immunogen A; 4-1BB^ECD-hFc; not shown: human IgG Fc fragment (hFc) of the pCpC vector

Row | Binder | average fluorescence intensity [1] | average fluorescence intensity [2] | average fluorescence intensity [3] | average fluorescence intensity [4] | average fluorescence intensity [5] | average fluorescence intensity [6] | average fluorescence intensity [7] | average fluorescence intensity [8] | average fluorescence intensity [9] | average fluorescence intensity [10] | average fluorescence intensity [11] | average fluorescence intensity [12] | average fluorescence intensity [13] | average fluorescence intensity [14] | average fluorescence intensity [15] | average fluorescence intensity [16] | EC50 (read off the curve) [17]
1 | B1 | 5.4 MFI | 458 MFI | 2 MFI | 51.1 MFI | 2.5 MFI | 15.2 MFI | 479 MFI | 2.2 MFI | 154 MFI | 2.9 MFI | 204 MFI | 43.1 MFI | 12.7 MFI | 4.6 MFI | 390 MFI | 552 MFI | 
2 | B2 |  |  |  |  |  |  |  |  |  |  |  |  |  |  |  |  | ~0.03 µg/mL
